Experiments:
Assay in all cases: ELISA, plate coated with toxin component
[1] = molecular target: S. aureus delta toxin (Staphylococcus aureus, UniProt P0C1V1 1-26)
Description: (§1) MaxiSorp microtiter plates were coated overnight with 10 μg/mL of individual F-components of S. aureus bicomponent toxins per well. Recombinant toxin components were either obtained from IBT BioServices (Gaithersburg, Md.) or generated by GenScript (Piscataway Township, N.J.). […] Wells were washed 3 times and then incubated with 100 ng/mL anti-human HRP secondary antibody per well for one hour at 25° C. 100 μL of SuperSignal ELISA Pico Chemiluminescent Substrate, (ThermoFisher Scientific) was added to the wells and signal was detected (Victor X3 plate reader, Perkin Elmer). Luminescence values were analyzed by a three-parameter logistic equation over an 11-point response curve (GraphPad Prism). Isotype-matched irrelevant control antibody and S. aureus delta toxin were included as controls.

[2] = molecular target: T1, LukD (GS) (Staphylococcus aureus, UniProt O54082 27-327)
T1 sequence: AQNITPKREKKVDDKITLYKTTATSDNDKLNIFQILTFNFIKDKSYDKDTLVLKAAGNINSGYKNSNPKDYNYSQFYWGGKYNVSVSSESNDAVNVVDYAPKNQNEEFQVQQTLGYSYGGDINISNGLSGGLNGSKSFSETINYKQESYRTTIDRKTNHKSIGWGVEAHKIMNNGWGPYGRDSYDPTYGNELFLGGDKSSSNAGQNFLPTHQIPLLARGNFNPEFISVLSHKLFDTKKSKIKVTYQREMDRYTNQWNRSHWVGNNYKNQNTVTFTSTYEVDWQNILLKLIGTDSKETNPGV
Description: as §1

[3] = molecular target: T2, HlgB (GS) (Staphylococcus aureus, UniProt P0A077 26-325)
T2 sequence: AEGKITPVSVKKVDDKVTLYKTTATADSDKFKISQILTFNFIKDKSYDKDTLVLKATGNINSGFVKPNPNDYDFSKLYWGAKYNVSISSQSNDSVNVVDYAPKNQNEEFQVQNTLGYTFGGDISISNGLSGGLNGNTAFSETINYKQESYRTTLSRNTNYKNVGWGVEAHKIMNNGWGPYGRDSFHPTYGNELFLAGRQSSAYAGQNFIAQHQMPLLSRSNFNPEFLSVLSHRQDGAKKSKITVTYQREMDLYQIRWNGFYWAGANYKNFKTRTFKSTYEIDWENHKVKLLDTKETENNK
Description: as §1

Row | Binder | binding result [1] | binding result [2] | binding result [3]
1 | H1H15405P (antibody, V domains shown) VH: EVQLVESGGGLVQPGGSLRLSCGASGFTFSYYWMTWVRQAPGKGLEWVANINQDGSEKFYVDSVRGRFTISRDNAKKSLYLQMNSLRAEDTAVYYCARDGYCSSIGCYNLYGMDVWGQGTTVTVSS VL: DIQMTQSPSSLSASVGDRVTITCRASQNINKYLNWYQQKPGQAPKLLIYTTSSLQSGVPSRFSGSGSGTDFTLTISSLQPEDFATYSCQQSYNSPLTFGGGTKVEIK | no binding (tested: titration 50 uM-100 pM) | no binding (tested: titration 50 uM-100 pM) | no binding (tested: titration 50 uM-100 pM)
2 | H1H15404P (antibody, V domains shown) VH: QVQLQESGPGLVKPSETLSLTCTVSGGSISGYFWGWIRQTPGKGLEWIGYIFYSGSTHYNPSFKSRVTMSVDTSKNQFALKLRSVTAADTAKYYCSRQREYYGSGNYRYFGMDVWGQGTTVTVSS VL: AIQMTQSPSSLSASVGERVTITCRASQDIRDDLGWYQQRPGKAPNLLIYAASSLHSGVPSRFSGSGSGTDFTLTISSLQPEDFATYYCLQDYNYPWTFGQGTKVEIK | no binding (tested: titration 50 uM-100 pM) | no binding (tested: titration 50 uM-100 pM) | no binding (tested: titration 50 uM-100 pM)
3 | H1H15410P (antibody, V domains shown) VH: QVQLQESGPGLVKPSETLSLTCTVSGGSISGYFWGWVRQPPGKGLEWIGYIFYSGSTNYNPSLKSRITLSVDTSKNQFSLKLSSVTAADTAIYYCARHREYYGSGNYRYYALDVWGQGTTVTVSS VL: AIQMTQSPSSLSASVGDRVTITCRASQGIRDDLGWYQQKPGKAPKLLIYAASSLQSGVPSRFSGSGSGTDFTLTISSLQPEDFATYYCLQDYNFPLTFGQGTKVEIK | no binding (tested: titration 50 uM-100 pM) | no binding (tested: titration 50 uM-100 pM) | no binding (tested: titration 50 uM-100 pM)
4 | H1H15399P (antibody, V domains shown) VH: EVQLVESGGGLVQPGGSLRLSCAASGFTFSSSAMSWVRQAPGKGLEWVSTLNVGADSTFYAGSVRGRFTISRDNSKNTLFLQMNSLRAEDTAVYYCAKDWGGIPYYYYYYGMDVWGQGTTVTVSS VL: DIQLTQSPSFLSASVGDRVTITCWASQGISSYLAWYQQKPGKAPNLLIYTASTLQSGVPSRFSGSGSGTEFTLTISSLQPEDFATYYCQQLNSYPLTFGGGTKVEIK | no binding (tested: titration 50 uM-100 pM) | no binding (tested: titration 50 uM-100 pM) | no binding (tested: titration 50 uM-100 pM)
5 | H1H15377P (antibody, V domains shown) VH: EVQLVESGGGLVQPGGSLRLSCAASGFTFTSYEMNWVRQAPGKGLEWISYISSGGDTKYYADSVRGRFTISRDNAKNSLYLQMNSLRAEDTALYYCARDVLNWVFDYWGRGTLVTVSS VL: DIQMTQSPSSLSASVGDRVTITCRASQSIGKYLNWYRQSPGKAPKLLIYATSSLQSGVPSSFSGSGSGTDFTLTISSLQPEDFATYYCQQGFRTPFTFGPGTKVDIK | no binding (tested: titration 50 uM-100 pM) | no binding (tested: titration 50 uM-100 pM) | no binding (tested: titration 50 uM-100 pM)
6 | H1H15380P (antibody, V domains shown) VH: QVQLQESGPGLVKPSETLSLMCTVSGGSINNYYWSWIRQPPGKGLEWIGYIYNGGITKYNPSLKSRVTISVDTSKSQISLKLNSVTAADTAFYYCTKEQLERREGHIWFDPWGQGTLVTVSS VL: DIQMTQSPSSLSASVGDRVTITCRASQTINNYLNWYHQKPGKAPKLLIYGTSSLQSGVPSRFSGSGSGTEFALTISSLQPEDFATYYCQQSSSTPYTFGQGTKLEIK | no binding (tested: titration 50 uM-100 pM) | no binding (tested: titration 50 uM-100 pM) | no binding (tested: titration 50 uM-100 pM)
7 | H1H15418P2 (antibody, V domains shown) VH: QVQLVESGGGLVRPGGSLRLSCEASGFTFNEHYMSWIRQAPGKGLEWVAFISSGGSIIYYADSVKGRFTISRDSAKNSLYLQMNSLRPEDTAIYYCAREPFGGIIVFDYWGQGTLVTVSS VL: not shown | no binding (tested: titration 50 uM-100 pM) | no binding (tested: titration 50 uM-100 pM) | no binding (tested: titration 50 uM-100 pM)
8 | H1H15375P (antibody, V domains shown) VH: QVQLVESGGGGVQPGRSLRLSCEASGFTFSDYGMQWVRQAPGKGLEWVAVIWDDGRKKYYADSVKGRFTVSRDNSKNTLYLEINSLRVEDTAVYYCAREGSSSSGRYFLYGMDVWGQGTTVTVSS VL: DIQMTQSPSSLSASVGDRVTITCRASQRISSYLNWYQQKLGKAPKLLISVASSLQSGVPSRFSGSGSGTDFTLTISSLQPEDFGIYYCQQSYNTPPWTFGQGTKVEIK | no binding (tested: titration 50 uM-100 pM) | – | –
9 | H1H15414P (antibody, V domains shown) VH: EVQLVESGGDLVQPGGSLRLSCAASGFTFSSFEMNWVRQAPGKGLEWVSYISSSGSTIYYADSVKDRFTVSRDKDKNSLYLQMNSLRAEDTAVYYCARGSWNQPYFDYWGQGTLVTVSS VL: DIQMTQSPSTLSASVGDRVTITCRASQSISSWLAWYQLKPGKAPKVLIYKASSLESGVPSRFSGSGSGTEFTLTINSLQPDDFATYYCQQYNSWTFGQGTKVEIK | no binding (tested: titration 50 uM-100 pM) | no binding (tested: titration 50 uM-100 pM) | no binding (tested: titration 50 uM-100 pM)
10 | H1H15378P (antibody, V domains shown) VH: EVQLVESGGGLVQPGGSLRLSCAASGFTFNNYEMNWVRQAPGKGLEWVSFISSSGSTIDYAVSVKGRFTISRDNAKNSLYLQMNSLRPGDTAVYYCARARLDFYYYGMDVWGQGTTVTVSS VL: DIQMTQSPSSLSASVGDRVTITCRASQGISNYLAWFQQKPGKAPKSLIYATSTLQSGVPSKFSGSGSGTDFTLTISSLQPEDFATYYCQQYNSFPLTFGGGTKVEIK | no binding (tested: titration 50 uM-100 pM) | no binding (tested: titration 50 uM-100 pM) | no binding (tested: titration 50 uM-100 pM)
11 | H1H15408P (antibody, V domains shown) VH: EVQLVESGGGLVQPGGSLRLSCAASGFTFSRYDMSWVRQAPGKGLEWVSAISYSGDSTYYADSVQGRFTISRDNSKNTLYLQMNSLRAEDTALYHCAKDNGYSGTYYYYYGMDVWGQGTTVTVSS VL: DIQMTQSPSSLSASVGDRVTITCRASQGISNYLAWFQQKPGKAPKFLIYAASSLQSGVPSKFSGSGSGTDFTLTISSLQPEDFATYYCQQYNSYPYTFGQGTKLEIK | no binding (tested: titration 50 uM-100 pM) | no binding (tested: titration 50 uM-100 pM) | no binding (tested: titration 50 uM-100 pM)
12 | H1H15379P (antibody, V domains shown) VH: EVQLVESGGGLVQPGWSLRLSCAASGFTFDDYAMHWVRQAPGKGLEWVSGISWNSDDIDYTDSVKGRFTVSRDNAKNSLYLQMNSLRADDTAFYYCVRQRVRGYYYFGMDVWGQGTTVTVSS VL: DIQMTQSPSSLSASVGDRVTITCRASQGISNYLAWFQQKPGKAPMSLIYAASSLQSGVPSKFSGSGSGTDFTLTISSLQPEDFATYYCQQYNSYPFTFGPGTKVDIK | no binding (tested: titration 50 uM-100 pM) | no binding (tested: titration 50 uM-100 pM) | no binding (tested: titration 50 uM-100 pM)
